Results on 1 variant are retold here after IntAct's records for PubMed 10930573.

Sequences and labels used below:
B1: Histidine kinase 1 (Arabidopsis thaliana (Mouse-ear cress)), Q9SXL4 (parent)
chain: MRGDSFSMSIENLPDSPMGSRKKKMQIRKVFDKMTEWVTPWRSNLESPREMMILRGDVEQDEFQYASSHCLSSYYSVFVVRLAIMVMLAILIGLLTVLTWHFTRIYTKQSLQTLAYGLRYELLQRPVLRMWSVLNTTSELTTAQVKLSEYVIKKYDKPTTQEELVEMYQAMKDVTWALFASAKALNAITINYRNGFVQAFHRDPASSSTFYIFSDLKNYSISGTGPEDVSGWNNKSIHGNMSAIWYQQQLDPVTGENLGKPLKIPPDDLINIAGISQVPDGEASWHVTVSKYMDSPLLSAALPVFDASNKSIVAVVGVTTALYSVGQLMRDLVEVHGGHIYLTSQEGYLLATSTDGPLLKNTSNGPQLMKATDSEEWVIKSGAQWLEKTYGSKRPHVVHAENVKLGDQRYYIDSFYLNLKRLPIVGVVIIPRKFIMGKVDERAFKTLIILISASVCIFFIGCVCILILTNGVSKEMKLRAELIRQLDARRRAEASSNYKSQFLANMSHELRTPMAAVIGLLDILISDDCLSNEQYATVTQIRKCSTALLRLLNNILDLSKVESGKLVLEEAEFDLGRELEGLVDMFSVQCINHNVETVLDLSDDMPALVRGDSARLVQIFANLISNSIKFTTTGHIILRGWCENINSLHDEMSVSVDRRKPWAPMKTKQVQHRNHLQKSCKNANKMVLWFEVDDTGCGIDPSKWDSVFESFEQADPSTTRTHGGTGLGLCIVRNLVNKMGGEIKVVQKNGLGTLMRLYLILSTPDTVDQNIQPDFSKYGLVVMLSMYGSTARMITSKWLRKHGIATVEASDWNELTQIIRDLLETGSRDNSFDSQHNISDPLRAELSNIVEIKNPVFVIVVDIGVLDLTTNIWKEQLNYLDRFSNKAKFAWLLKHDTSNTVKTELRRKGHVMMVNKPLYKAKMIQILEAVIKNRKRGLCNDLRNRGNGSDESHDCLEIDPTQFDTCSSDDSSETSGEKQVDKSVKPSTLHSPVLKNYLIDATTSNDDSTSASMTQKNPEEEDWKDRLYSGIALDGKNQKSLEGIRILLAEDTPVLQRVATIMLEKMGATVTAVWDGQQAVDSLNYKSINAQAPTEEHKSFEEETANKVTTRETSLRNSSPYDLILMDCQMPKMDGYEATKAIRRAEIGTELHIPIVALTAHAMSSDEAKCLEVGMDAYLTKPIDRKLMVSTILSLTKPSAFQTSLSA
partner: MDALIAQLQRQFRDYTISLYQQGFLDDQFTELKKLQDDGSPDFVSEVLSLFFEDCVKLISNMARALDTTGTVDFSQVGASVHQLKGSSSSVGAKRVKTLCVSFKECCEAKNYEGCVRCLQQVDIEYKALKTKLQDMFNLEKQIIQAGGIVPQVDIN

Variants of B1 are the subject of the test. The following applies: with ahp2_arath AHP2, Q9ZNV8.
Turning to D1075E, the “effect of a mutation on the interaction” value is “disrupting interaction”.
